T1: T cell receptor (TCR) Vγ9 (TRGV9) (human, UniProt Q99603 21-122)
T1 chain (looked up): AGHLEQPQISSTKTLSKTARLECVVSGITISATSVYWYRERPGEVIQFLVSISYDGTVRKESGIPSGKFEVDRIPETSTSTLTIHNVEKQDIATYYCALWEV

T2: T cell receptor (TCR) Vγ9 (TRGV9) (human, UniProt Q99603 21-122)
T2 chain (looked up): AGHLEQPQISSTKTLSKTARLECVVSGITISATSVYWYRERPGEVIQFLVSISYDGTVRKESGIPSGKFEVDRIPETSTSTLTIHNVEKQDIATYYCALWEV


Molecular target: T1, T cell receptor (TCR) Vγ9 (TRGV9)
Assay: cell-based or functional assay
For CD25+ (Vg9+ cells), flow staining in this document: test concentration or dose not given here.
For CD71+ (Vg9+ cells), flow staining in this document: test concentration or dose not given here.
For Granzyme B, Luminex (supernatant) in this document: unit not given here.
For IL6, Luminex (supernatant) in this document: unit not given here.
For TNFα, Luminex (supernatant) in this document: unit not given here.

Row | CD25+ (Vg9+ cells), flow staining | CD71+ (Vg9+ cells), flow staining | Granzyme B, Luminex (supernatant) | IFNγ, Luminex (supernatant) | IL6, Luminex (supernatant) | TNFα, Luminex (supernatant) | Vg9 T cell %, flow staining | Binder
1 | 23% | 91.2% | 1100 | 324 | 199 | 66 | 3.6% | VG9B198 (antibody, human IgG1, lambda, V domains shown) VH: QVQLQESGPGLVKPSETLSLTCTVSGDSISSIYWSWIRQSAGKGLEWIGRIYTTDITNYNPSLKSRVTMSADTSKNQLSLKLTSVTAADTAVYYCAKNGYSYGGFNYWGQGTLVTVSS VL: QSVLTQPPSVSGAPGQRVTISCTGSSSNIGAGYDVHWYQRLPGTAPKLLIYGDSYRPSGVPDRFSGSKSGTSASLAITGLQAEDEADYYCQSYDSSLSVVVFGGGTKLTVLG
2 | 26% | 87.4% | 965 | 364 | 100 | 2110 | 4.1% | VG9B463 (antibody, human IgG1, lambda, V domains shown) VH: EVQLVESGGGLVKPGGSLRLSCSASGFTFSNYDMNWVRQAPGKGLEWVSSISSSSSYIYYADSVKGRFTISRDNAKNSLYLQMNSLRAEDTAVYHCARDVGVTTDYYYYGMDVWGQGTTVTVSS VL: QPVLTQSSSASGTPGQRVTISCSGSSSNIGSNTVNWYQQFPGTAPKLLIYTNTQRPSGVPDRFSGSKSGTLVSLAISGLQSEDEADYYCAAWDDSLNAWVFGGGTKLTVLG
3 | 29.9% | 98.5% | 3700 | 1580 | 440 | 173 | 7.8% | VG9B469 (antibody, human IgG1, kappa, V domains shown) VH: EVQLVESGGGLVKPGGSLRLSCAASGFTFSHYDMNWVRQAPGKGLEWVSSISSSSSYIFYADSVKGRFTISRDNAKNSLLLQMNSLRAEDTAVYHCARDRGVGDTSDYYSFGLDVWGQGTMVTVSS VL: DIVMTQSPGTLSLSPGERATLSCRASQNVSSTYLAWYQQKPGQAPRLLIYGACSRATGIPDRFSGSGSGTDFTLTISRLEPEDYAVYYCQQYGSSPPYTFGRGTKLEIKR

Molecular target: T2, T cell receptor (TCR) Vγ9 (TRGV9)
Assay: cell-based or functional assay

Row | Binder | CD25+ (Vg9+ cells), flow staining | CD71+ (Vg9+ cells), flow staining | Granzyme B, Luminex (supernatant) | IFNγ, Luminex (supernatant) | IL6, Luminex (supernatant) | TNFα, Luminex (supernatant) | Vg9 T cell %, flow staining
4 | VG9B36 (antibody, human IgG1, kappa, V domains shown) VH: QVQLVESGGGLVKPGGSLRLSCASSGFTFSSYGMYWVRQAPGKGLEWVSSISTGSSYIYYADSVKGRFTISRDNAKNSLYLQMNSLRAEDTAVYYCARDKGLAVTGYIMDVWGQGTTVTVSS VL: EIVLTQSPSSLSASVGDRVTITCQASQDISNYLNWYQQKPGKAPKLLIYDASNLETGVPSRFSGSGSGTDFTFTISSLQPEDIAIYYCQQYDNLPMYTFGQGTKVEIKR | 29.1% | 89.4% | 3890 | 2580 | 607 | 188 | 7.8%
5 | VG9B33 (antibody, human IgG1, kappa, V domains shown) VH: EVQLVESGGGLVKPGGSLRLSCAASGFTFSSYNMNWVRQAPGKGLEWVSSISTSSSYIYYADSVKGRFTISRDNAKNSLYLQMNGLRAEDTAVYYCARDTSVTKYPDTFDIWGQGTMVTVSS VL: DIVMTQSPSSLSASVGDRVTITCRASQDINNYLAWFQQKPGKVPNLLIYGASTLQSGVPSRFTGSGSGTDFTLTISSLQPEDVATYYCQKYNSAPFTFGPGTKVDIKR | 28% | 95.2% | 1990 | 749 | 240 | 85 | 14%
6 | VG9B191 (antibody, human IgG1, lambda, V domains shown) VH: EVQLVQSGGGLVKPGGSLRLSCAASGFTFSRYSMNWVRQAPGKGLEGVSSISSSSSYIYYADSVKGRFTISRDNAKNSLYLQMNSLRAEDTAVYYCARDGPTVNWDYYFDLWGRGTLVTVSS VL: QSVLTQPPSVSAAPGQKVTISCSGSSSNIGNNYVSWYQQLPGTAPKLLIYDNNKRPSGIPDRFSGSKSGTSATLGITGLQTGDEADYYCGTWDSSLSTSVVFGGGTKLTVLG | 42.4% | 93.6% | 3370 | 1380 | 400 | 7320 | 5.2%
7 | VG9B137 (antibody, human IgG1, kappa, V domains shown) VH: EVQLVESGGGLVKPGGSLRLSCAAFGITFSSYSMDWVRQAPGRGLEWVSSIGSSSSYIFYADSVKGRFTISRDNAKNSLYLQMNSLRAEDTAVYYCATSYSWNYGGAFDIWGQGTMVTVSS VL: not shown | 8.7% | 77.3% | 36 | 44 | 8 | 30 | 3.6%
8 | VG9B44 (antibody, human IgG1, kappa, V domains shown) VH: QVQLQQSGPGLVKPSQTLSLTCAISGDSVSSNSAAWNWIRQSPSRGLEWLGRTYYRSKWYNDYPISVKSRISINPDTSKNQFSLQLNSVTPEDTAVYYCARESGSYYTDGFDIWGQGTMVTVSS VL: DIQMTQSPSFLSASVGDRVTITCRASQGISSYLAWYQQKPGKAPKLLIYAASTLQSGVPSRFSGSGSGTEFTLTISSLQPEDFATYYCQEFNSYPYTFGQGTKLEIKR | 45.4% | 98.8% | 3030 | 1150 | 587 | 198 | 14.4%
9 | VG9B384 (antibody, human IgG1, lambda, V domains shown) VH: QVQLQESGPALVKPTQTLTLTCTFSGFSLSSSGMCVSWIRQPPGKALEWLTLIDWFDDKYYSTSLKTRLTISKDTSKNQVVLTMTNMDPVDTATYYCARIRGTGAYYYGLDVWGQGTMVTVSS VL: SYELMQPPSVSVSPGQTASITCSGNELGDKYASWYQQQPGQSPVLVIYQDNKRPSGIPERFSGSNSGNTATLTISGTQAMDEADYYCQAWDSSKVVFGGGTKLTVLG | 26.4% | 89.9% | 2300 | 1100 | 610 | 3740 | 3.4%
10 | VG9B162 (antibody, human IgG1, lambda, V domains shown) VH: QVQLVESGAEVTKPGASVKVSCKASGYTFTGDYMHWVRQAPGQGLEWMGWINPNSGYTNYAQKFQGRVTMTRDTSISTAYMELSRLRSDDTAVYYCAREGDAFDVWGQGTMVTVSS VL: QLVLTQSSSASGSPGQSVTISCTGTSSDVGGYNYVSWYQQHPGKAPKLMIYEVSKRPSGVPDRFSGSKSGNTASLTVSGLQAEDEADYYCNSYAGSNNFEVFGGGTKLTVLG | 9.7% | 70.3% | 481 | 57 | 54 | 329 | 2.7%
11 | VG9B67 (antibody, human IgG1, kappa, V domains shown) VH: EVQLVESGGGLVKPGGSLRLSCAASGFTFSSYTMNWVRQAPGKGLEWVSSISSSSSYIDYAESVKGRFTISRDNAKNSLYLQMNSLRAEDTAVYYCARDGDILATIRGSFDYWGQGTTVTVSS VL: DIVMTQTPLSLPVTPGEPASISCRSSQSLLDSDAGNTYLDWYLQKPGQSPQLLIYTLSYRASGVPDRFSGSGSGTDFTLKISRVEAEDVAIYYCMQRIEFPITFGQGTKVEIKR | 28.5% | 87.4% | 2550 | 972 | 365 | 144 | 14%
12 | VG9B127 (antibody, human IgG1, kappa, V domains shown) VH: QVQLVESGGGLVKPGGSLRLSCTASGFTFGAYTMNWVRQAPGKGLEWVSSISSSSSYIDFAESVKGRFTISRDNAKNSLYLQMISLRAEDTAVYYCARDGDIVSTIRGSFDYWGQGALVTVSS VL: EIVMTQSPLSLPVTPGEPASISCRSSQSLLDSDDGNTYLDWYLQKPGQSPQLLIYTLSYRASGVPDRFSGSGSGTDFTLKISRVEAEDVGIYYCMQRIEFPITFGQGTKVEIKR | 37.3% | 96.5% | 2450 | 1170 | 348 | 709 | 11.2%

More lines, now with the values ahead:

Row | CD25+ (Vg9+ cells), flow staining | CD71+ (Vg9+ cells), flow staining | Granzyme B, Luminex (supernatant) | IFNγ, Luminex (supernatant) | IL6, Luminex (supernatant) | TNFα, Luminex (supernatant) | Vg9 T cell %, flow staining | Binder
13 | 45.5% | 99.1% | 4500 | 2370 | 433 | 376 | 9.5% | VG9B402 (antibody, human IgG1, kappa) heavy: not shown light: DIQMTQSPSSVSASVGDRVTITCRASQGINSWLAWYQQKPGNAPKLLIYAASSLQSGVPSRFSGIGSGTDFIFTISSLQPEDFASYYCQQANSFPWTFGQGTKVDIKRTVAAPSVFIFPPSDEQLKSGTASVVCLLNNFYPREAKVQWKVDNALQSGNSQESVTEQDSKDSTYSLSSTLTLSKADYEKHKVYACEVTHQGLSSPVTKSFNRGEC
14 | 44.9% | 98.8% | 5800 | 2830 | 1960 | 229 | 13.3% | VG9B413 (antibody, human IgG1, kappa) heavy: not shown light: EIVMTQSPGTLSLSPGDRATLSCRASQSVASSYLAWYQQKPGQSPRLLIYGASSRATGIPDRFSGSGSGTDFTLTISRLEPEDFAVYYCQQYGSSPPYTFGQGTKVEIKRTVAAPSVFIFPPSDEQLKSGTASVVCLLNNFYPREAKVQWKVDNALQSGNSQESVTEQDSKDSTYSLSSTLTLSKADYEKHKVYACEVTHQGLSSPVTKSFNRGEC
15 | 36.2% | 97.5% | 3020 | 1390 | 175 | 102 | 7.2% | VG9B403 (antibody, human IgG1, kappa) heavy: not shown light: DIVMTQSPGTLSLSPGDRATLSCRASQSVASSYLAWYQQKPGQSPRLLIYGASSRATGIPDRFSGSGSGTDFTLTISRLEPEDFAVYYCQQYGSSPPYTFGQGTKVEIKRTVAAPSVFIFPPSDEQLKSGTASVVCLLNNFYPREAKVQWKVDNALQSGNSQESVTEQDSKDSTYSLSSTLTLSKADYEKHKVYACEVTHQGLSSPVTKSFNRGEC
